Assay: yeast display, Sf9 membrane polyspecificity reagent, FACS + sequencing; frameworks hold sequencing errors
Method in brief: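 A nanobody's polyreactivity label depends on the gate it was sorted from. Yeast display cells were stained with 10% biotinylated, detergent-solubilized Sf9 membrane reagent for 1 hour at 4 °C, enriched on streptavidin microbeads and sorted by FACS. The low and high (top ~1%) gates were set on anti-HA fluorescence for expression and streptavidin fluorescence for reagent binding.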

Row | Sequence | polyreactivity (PSR sort gate)
1 | QVKLVESGGGLVQAGGSLRLSCSASGFTFRFYAMGWYIQAPGKERELVASITRSGGSTYYADSVKGRFTISRDNAKNTVYLQMNSLKPEDTAVYYCAAYRCYVSYKEMYYLGQGTQVTVSS | high polyreactivity
2 | QVKLVESGGGLVQAGGSLRLSFAAYGSIFAWYGMGWYRQAPGKERELVAAISTAGSTNYADSVKGRFTISRDNAKNTVYLQMNSLKPEDTAVYYCAKKSSWYYQERFDYWGQGTQVTASS | low polyreactivity
3 | QVKLVESGGGLVQAGGSLRLSFDASGSTFYFYAMGLYRQDPGKETEFFAAITQSGGSTNYADSVKGRFTISRDKAKNTVYLQMNSLKPEDTAVYYCSAREWRSFDYWGQGTQVTVSS | low polyreactivity
4 | QVKLVESGGGLVQAGGSLRLSSAASGSTFEYNAMGWYRQAPGKERELVASSTNYADSVKGRFTISRDNAKNTVYLQMTSRKPEDTAVYYCAREQGVNRNHDYWGQGTQVTVSS | low polyreactivity
5 | QVKLVESGGGLVQAGGSLSLSCDASGFISVQNALGCYRQAPGKERELVASITSDGSTYYADSVKGRFTISRDNAKNTVYLQMTSLKPEDTAVYDCAKVNNSYSGFTTTLEYWGQGTQVTVSS | low polyreactivity
6 | QVKLVESGGGLVQEGGSLRLSCAASGRICGNYSMGWYRQAPGKERELVAAIDLSGDSTYYADSVKGRFTISRDNAKNTVYLQMNSLKPEDTAVYYCAATDWFSEYYWGQGTQVTVSS | low polyreactivity
7 | QVKLVESGRGLVQAGGSLRLSCAASGITFISNAMAVYRQAPGKERELVAAISYRGGSTYYADSVKGRFTISRDNAKNTVYLQMNSLKPEDTAVYDCAARFHYPGGPRYYYWGQGTQVTVSS | high polyreactivity
8 | QVKLVESGVGLVQAGGSLRLSCGASGFIFVRYAIVWSRQAPGKERDLVAAISGSGGRTYYAYSVKGRFTISRDNAKNTVYLKMNSLKPEDTSVYYCNVKSYTYGYLPYDYWGQGTQVTVSS | high polyreactivity
9 | QVKLVESVGGLVQAGGRLRLSCAASGSILYFNAMGWYRQAPGKERELVAAISKSGGRTYYADSVKGRFTISRDNAKNTVYLQMNCLKPEDTAVYYCAKDNYWGQGTQVTVSS | high polyreactivity
10 | QVKLVESWRGLVPAGVSLRLSCAASVNILDYYAMGWYRQAPGNERELVASITSGGGTYYADSVKGRFTISRDNAKNTVYLQMNSLKPEDTAVYYCNAGPKRTYSPPWRVRYYDWGQGTQVTVSS | high polyreactivity
11 | QVKLVVSGGGLVQAGGSLRLTCAASGRTFRRNAMGWYRQAPGKERELVAAISTSGGRTYYADSVKGRFTISRDNAKNTVYLQMNSLKAEDTAVYYCAADIPQTEGYWGQGTQVTVSS | low polyreactivity
12 | QVKQQESGGGLVKAGGSLRLSCAASGNISNHNDMGRYRQAPGKEREFVAGITAGGITNYADRVKGRCTISRDNAKNTVYLQMNCLKPEETAVYYCAAYADYAKSYGYWGQGTQATVSS | low polyreactivity
13 | QVKRVESGGGLVQAGGSLRFSCADSGFTFGTYAMGWYRQAPGKEREFVAAISSNGGNTYYADSVKGRFTISRDNAKNTVYLEIHSLKPEDTAVSYCADRYPSGTRKWYCYWGQGTQVTVSS | high polyreactivity
14 | QVLLEDSGGGLVQAGARLRLICAASGRIHVNAMGWYRQAPGKERELVASINIGDGTHYADSVKGRFTISRANAKNTVYLQLNSLISEVTAVYYCAADSRSSNACYDYWGQGTQVSVSS | low polyreactivity
15 | QVLLQESGGGLVQAGGSLRLCCAASGYISGDQFMGWYRQAPGKEREFVAGIGNGTNTNYADSVKGRFTTSRDNAKNTVYLQMNSLKPEDTAVYYCAADPSDGSTLAYWGQGTQVTVSS | high polyreactivity
16 | QVLLQESGGGLVQAGGSLRLGCAASGTISPAYYMGRYHQAPGKEREFVAAITYGTNTYYADSEKGRFTISRDNAKNTVYLQMNSLKPEDTAVYYCSATAGYNGAHDYWGQVTQVTVSS | low polyreactivity
17 | QVLLQESGGGLVQAGGSLRLGCAASGTISPAYYMGRYHQAPGKEREFVAAITYGTNTYYADSVKGRFTISRDNAKNSVYLQMNSLKPEDTAVYYCSATAGYNGAHDYWGQGTQVTVSS | low polyreactivity
18 | QVLLQESGGGLVQAGGSLRLSCAASGSIFLIYTMGWYRHAPVKEREFVAGITLGTTTYNADSVKGRFTISRDNVKNTVYLKMNILKPEDTEVYYCAVAVGHYTEFWYWGQGTQVTMSS | high polyreactivity
19 | QVLLQESGGGLVQAGGSLRMSCAASGNIFSAGGMGWYRQAPVNERELVAGIGTGTSTNYADSVKGRFTISRDNAKNTVYLQMNSLKPEDTAVYYCAAAYYSGLSHWYWGQGTQVTVSS | low polyreactivity
20 | QVLLQESGGLVQAGCSLRMSCAASGSISTALSMGWYRQAPGKERELVATISDGASTNYADSVKGRFTISRVNAKNTVYLQMNSLKPEDSEVYYCAAQSQYRPDHRYWGQGTQVTVSS | high polyreactivity
21 | QVLLVESGGCLVQAGGSVRLSCAASGSTFAPYVMGWYTQAPGKERELVADISTSGSTYYADSVKGRFTISRDNAKNTVYLQMNSMKPEDTAVYYCAAEDQRWFWTYDCWGQGTQVTVSS | high polyreactivity

Row | Sequence | polyreactivity (PSR sort gate)
22 | QVLLVESGGGIVQAGGSLRLSCAASGSIIEPNAMGWYRQEPGQEREFVAAISGSGGSTYYADSVKGRFTSSRDNAKNTVYLQRNSLKPEYSAVYYCNALYLRTTPQDYDYWGQGTQVTVSS | high polyreactivity
23 | QVLLVESGGGLDHAGGSLPLSCAASGFTFGDNAMGWYRQAPGKERELVAAITSTGGSTNYADSVKGRFTISRDNAKYTVYLQMNSLKPDDTAVYYCAAEWLYRHDGGYPRPMDYWGQGTQVTVSS | low polyreactivity
24 | QVLLVESGGGLLQAGGSLRLSCAASGFTFLGYVMGWYRQAPGKEREFVADITESGGRTYYADSVKGRFTISRDNAKNTVYLQMNSLKPEDTAVYYCSGEVIFEQLNRMDYWGQGTQVTVSS | low polyreactivity
25 | QVLLVESGGGLVQAGGSIRLSCDASGLTFYQNSMGWYRQAPGKERELVAAISSTRITNYADSVKVRFTLSRDNAKTPVYLQMNSLIPEDTAVYYCNADYHPFFFEFIYWGQGTQGTVSS | high polyreactivity
26 | QVLLVESGGGLVQAGGSLRLICAASGLIFFYYDMGWYRQAPGKERELVAAISQRGGSTYYADSLKGRFTISRDNEKNTVYLQMNSLKPEETAVYYCNVRSPASYRRYYWGQGTQVTVSS | high polyreactivity
27 | QVLLVESGGGLVQAGGSLRLSCAASGGTFGAYDMGWYRQAPGKERELVATITSGGRTNYADSVTGRFTISRDNAKNTVYLQMNSLKPVDTAVYYCNARYYGYDAPYHTYEYYYWGQGTQVTVSS | low polyreactivity
28 | QVLLVESGGGLVQAGGSLRLSCAASGRTFVYYTMGWDRQAPGKERELVAAINWRGTSTYYADSVKGRFTISRDNAKNTVYLQMNSLKPEDTAVYYCYAERNAGFDYWGQGTQVTVSS | high polyreactivity
29 | QVLLVESGGGLVQAGGSLRLSCAASGSIFIANAKGWYRQAPGKERELGAAIDSGGSTNYADSVKGRFTISRDNAKYTVYLQMNSLKPEDTAVYYCAADGTLTAPGGDYWGQGTQVTVSS | high polyreactivity
30 | QVLLVESGGGLVQAGGSLRLSCAASGSTFWRNAMGWYRQATGKERELVAVISGSGSRTFYADSVKGRFTISRDNAKNTVNLQMNSLKPEDTAVYYCAADARQYQGFDYWGQGTQVTVSS | high polyreactivity
31 | QVLLVESGGGLVQAGGSLRLSCAPSGRTVDSYAMGWYRQAPGKETELVAAIDWGGGTTYYADSVKGRFRISRDNAKNSVYLQMNSLKPEDTAVYYCAAGDVWIAPYDSWGQGTQVTVSS | low polyreactivity
32 | QVLLVESGGGLVQAGGSLRLSCAPSGSIFDYYTMGWYRQAPGKERELVAAISSDGSTNYADSVKGRFTISRDNAKNTVYLQMNTLKPEDTAVYYCADSTYRFYYYLKRGYWGQGTKVTVSS | low polyreactivity
33 | QVLLVESGGGLVQAGGSLRLSSAASGSIFVCNAMGWYRQAPGKERELVAAIRGVDSTYYGDSVKGRFTISRDNGKNTFFLQMNSLKPEDTAFYYCATLGPGFPRYYDWGQGTQVTVSS | high polyreactivity
34 | QVLLVESGGGLVQEGGSLRLSCAASGITFDTYAMGGYRQAPGKEREFVASIKWITGNTYYEDSVKGRFTISRDNAKNTVYLQMNSLKTEDTAVYYCAARTYYVRGLGGRPGMDYWGQGTQVTVSS | low polyreactivity
35 | QVNLLDSGGGLVKAGGSLRLTCAASGSIYHPYTMGLYRQATGKETELVAAISWSGGNTNYADSVKGRFTISRDYAKNTVYLQMNSLKPEDTAVYYFAAAKRDFVEYDYWGEGTQVTVSS | low polyreactivity
36 | QVNLVQSAGGLVQAGCSLRLSCPASGFILYKNAMGRYRQKPGKERELVAISSSGGSTYYADSVKGRFTISRENAKNTVYLLMNSLKPEDTAVYYCGAYIYGTYYYWGQGTQVTVSS | high polyreactivity
37 | QVPLVESGGGIDQAGGSLRLSCAASGFIFCTYTMGWYIQAPGNEWELVAAISKSSGSTYYADSVKGRFTISRDNAKKTVYLQMNSLKPEDTAVYYCAAPTRSYGTPPYDYWGQGTQVTVSA | low polyreactivity
38 | QVPLVESGGGLVQAGGSLRLSWAASGRTFVPYAMGWDSPAPGKDWELVAAISSGGDTNYADSVKGRVTISRDNAKNTVYLQMNSLKPEDTAVSYCAADVKRDRVWGGDYWGQGTQVTVSS | low polyreactivity
39 | QVPLVESGGGLVQAGVSLRLSCAASGSIFYLYAMGWYRQAPGKERELVAAISRSGASTYYADSVKGRFTISRDNAKNTVYLQMNSQKPEDTAVYYCAAYKIWGRVRYDYWGQGTQVTVSS | low polyreactivity
40 | QVPLVESVGGLVQAGGSLRLSCAASGRIFRANAMGWYRQAPGKEREFVAAINFSVSSTYAYSVKGRFTISRDNAKNTVYLQMNSLKPEDTAVYYCAATPTREGEYWGQGTQVTVSS | low polyreactivity
41 | QVQFVESGGGVVQAGGSLRLSCAASGNIPYWYAMGWSRPAPAKERELVAAISSRGNTYYADSVKGRFTISRDNAKNNVYLQMNSLKQEDTAVYYCAAYAGSFYYWGQGTQVTVSS | high polyreactivity
